In this assay the target is thrombin. Put plainly: cell-based or functional assay.

Sequence of GST (Glutathion-S-transferase) expressed from pGEX-4T-3 (P08515 whole entry): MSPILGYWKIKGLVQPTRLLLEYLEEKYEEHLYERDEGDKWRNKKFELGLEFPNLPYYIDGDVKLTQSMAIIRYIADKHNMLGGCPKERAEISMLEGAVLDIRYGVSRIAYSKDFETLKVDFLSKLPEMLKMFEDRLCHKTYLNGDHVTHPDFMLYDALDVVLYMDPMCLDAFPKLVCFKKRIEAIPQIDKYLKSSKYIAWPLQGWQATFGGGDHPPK

Regarding “GST (Glutathion-S-transferase) expressed from pGEX-4T-3 (from UniProt P08515 1-218)”, the thrombin activity, delta Abs (405 nm)/2 min, Test 1; sample A: supernatant + water (Abs (405 nm)/2 min) came to 0.087; the thrombin activity, delta Abs (405 nm)/2 min, Test 1; sample B: pH 2.0 (Abs (405 nm)/2 min) is 0.082; the thrombin activity, delta Abs (405 nm)/2 min, Test 1; sample C: pH 2.0 + 2 ug chymosin (Abs (405 nm)/2 min) was 0.063; the thrombin activity, delta Abs (405 nm)/2 min, Test 1; sample D: pH 4.5 (Abs (405 nm)/2 min) turned out to be 0.087. In addition, the thrombin activity, delta Abs (405 nm)/2 min, Test 1; sample E: pH 4.5 + 2 ug chymosin (Abs (405 nm)/2 min) was 0.087; the thrombin activity, delta Abs (405 nm)/2 min, Test 2; sample A: supernatant + water (Abs (405 nm)/2 min) amounted to 0.082; the thrombin activity, delta Abs (405 nm)/2 min, Test 2; sample B: pH 2.0 (Abs (405 nm)/2 min) was determined as 0.073; the thrombin activity, delta Abs (405 nm)/2 min, Test 2; sample C: pH 2.0 + 2 ug chymosin (Abs (405 nm)/2 min) turned out to be 0.073. For the same substance, the thrombin activity, delta Abs (405 nm)/2 min, Test 2; sample D: pH 4.5 (Abs (405 nm)/2 min) worked out at 0.086 and the thrombin activity, delta Abs (405 nm)/2 min, Test 2; sample E: pH 4.5 + 2 ug chymosin (Abs (405 nm)/2 min) is 0.087.

In turn, “Hirudin 2 ug (positive control of Table 1)” showed a thrombin activity, delta Abs (405 nm)/2 min, Test 1; Hirudin 2 ug (Abs (405 nm)/2 min) of 0.0001 and a thrombin activity, delta Abs (405 nm)/2 min, Test 2; Hirudin 2 ug (Abs (405 nm)/2 min) of 0.0001.

Take “cleavage product of GST-Pro-Hirudin treated at pH 2.0 with 2 ug chymosin”: the thrombin activity, delta Abs (405 nm)/2 min, Test 1; sample C: pH 2.0 + 2 ug chymosin (Abs (405 nm)/2 min) stood at 0.066 and the thrombin activity, delta Abs (405 nm)/2 min, Test 2; sample C: pH 2.0 + 2 ug chymosin (Abs (405 nm)/2 min) is 0.07.

As to “hirudin released from GST-Pro-Hirudin by treatment at pH 4.5 with 2 ug chymosin (from UniProt P01050 1-65)”, the thrombin activity, delta Abs (405 nm)/2 min, Test 1; sample E: pH 4.5 + 2 ug chymosin (Abs (405 nm)/2 min) came to 0.0002 and the thrombin activity, delta Abs (405 nm)/2 min, Test 2; sample E: pH 4.5 + 2 ug chymosin (Abs (405 nm)/2 min) stood at 0.0001.

For the origin of these results see US20030166162A1.
